Experimental data: article PMC3808276 (2013)

Assays:
[1] = molecular target: T1, CXCL11 (Homo sapiens, UniProt O14625); assay: ELISA
T1 chain: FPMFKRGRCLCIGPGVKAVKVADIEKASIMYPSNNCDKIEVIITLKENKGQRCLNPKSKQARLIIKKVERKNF

[2] = molecular target: CXCL10 (Homo sapiens, UniProt P02778); assay: ELISA
Chain of CXCL10 (P02778 22-94): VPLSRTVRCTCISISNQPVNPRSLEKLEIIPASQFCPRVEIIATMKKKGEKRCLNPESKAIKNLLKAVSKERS

Kd [1]: 67 nM | Kd [2]: 68 nM
B1: Fg β15-66 15-66 (protein)
chain: MKHLLLLLLCVFLVKSQGVNDNEEGFFSARGHRPLDKKREEAPSLRPAPPPI
